Assay results taken from paper PMC7164391 (Science (New York, N.Y.), 2020).

Target: receptor-binding domain (RBD) of the SARS-CoV spike (S) protein (SARS-CoV, isolate of GenBank ABF65836.1 …, UniProt Q19QX0)
Conditions: both partners purified

B1: CR3022 Fab (Fab, V domains shown)
VH: QMQLVQSGTEVKKPGESLKISCKGSGYGFITYWIGWVRQMPGKGLEWMGIIYPGDSETRYSPSFQGQVTISADKSINTAYLQWSSLKASDTAIYYCAGGSGISTPMDVWGQGTTVTVSS
VL: not shown
B1 showed a Kd of 1 ± 0.1 nM.
